Values quoted from earlier work, collected in publication PMC8886532.

Biological target: kinetochore receptor (KNL1) (Homo sapiens) (UniProt Q8NG31)
Sequence of UniProt Q8NG31 (Q8NG31 whole entry): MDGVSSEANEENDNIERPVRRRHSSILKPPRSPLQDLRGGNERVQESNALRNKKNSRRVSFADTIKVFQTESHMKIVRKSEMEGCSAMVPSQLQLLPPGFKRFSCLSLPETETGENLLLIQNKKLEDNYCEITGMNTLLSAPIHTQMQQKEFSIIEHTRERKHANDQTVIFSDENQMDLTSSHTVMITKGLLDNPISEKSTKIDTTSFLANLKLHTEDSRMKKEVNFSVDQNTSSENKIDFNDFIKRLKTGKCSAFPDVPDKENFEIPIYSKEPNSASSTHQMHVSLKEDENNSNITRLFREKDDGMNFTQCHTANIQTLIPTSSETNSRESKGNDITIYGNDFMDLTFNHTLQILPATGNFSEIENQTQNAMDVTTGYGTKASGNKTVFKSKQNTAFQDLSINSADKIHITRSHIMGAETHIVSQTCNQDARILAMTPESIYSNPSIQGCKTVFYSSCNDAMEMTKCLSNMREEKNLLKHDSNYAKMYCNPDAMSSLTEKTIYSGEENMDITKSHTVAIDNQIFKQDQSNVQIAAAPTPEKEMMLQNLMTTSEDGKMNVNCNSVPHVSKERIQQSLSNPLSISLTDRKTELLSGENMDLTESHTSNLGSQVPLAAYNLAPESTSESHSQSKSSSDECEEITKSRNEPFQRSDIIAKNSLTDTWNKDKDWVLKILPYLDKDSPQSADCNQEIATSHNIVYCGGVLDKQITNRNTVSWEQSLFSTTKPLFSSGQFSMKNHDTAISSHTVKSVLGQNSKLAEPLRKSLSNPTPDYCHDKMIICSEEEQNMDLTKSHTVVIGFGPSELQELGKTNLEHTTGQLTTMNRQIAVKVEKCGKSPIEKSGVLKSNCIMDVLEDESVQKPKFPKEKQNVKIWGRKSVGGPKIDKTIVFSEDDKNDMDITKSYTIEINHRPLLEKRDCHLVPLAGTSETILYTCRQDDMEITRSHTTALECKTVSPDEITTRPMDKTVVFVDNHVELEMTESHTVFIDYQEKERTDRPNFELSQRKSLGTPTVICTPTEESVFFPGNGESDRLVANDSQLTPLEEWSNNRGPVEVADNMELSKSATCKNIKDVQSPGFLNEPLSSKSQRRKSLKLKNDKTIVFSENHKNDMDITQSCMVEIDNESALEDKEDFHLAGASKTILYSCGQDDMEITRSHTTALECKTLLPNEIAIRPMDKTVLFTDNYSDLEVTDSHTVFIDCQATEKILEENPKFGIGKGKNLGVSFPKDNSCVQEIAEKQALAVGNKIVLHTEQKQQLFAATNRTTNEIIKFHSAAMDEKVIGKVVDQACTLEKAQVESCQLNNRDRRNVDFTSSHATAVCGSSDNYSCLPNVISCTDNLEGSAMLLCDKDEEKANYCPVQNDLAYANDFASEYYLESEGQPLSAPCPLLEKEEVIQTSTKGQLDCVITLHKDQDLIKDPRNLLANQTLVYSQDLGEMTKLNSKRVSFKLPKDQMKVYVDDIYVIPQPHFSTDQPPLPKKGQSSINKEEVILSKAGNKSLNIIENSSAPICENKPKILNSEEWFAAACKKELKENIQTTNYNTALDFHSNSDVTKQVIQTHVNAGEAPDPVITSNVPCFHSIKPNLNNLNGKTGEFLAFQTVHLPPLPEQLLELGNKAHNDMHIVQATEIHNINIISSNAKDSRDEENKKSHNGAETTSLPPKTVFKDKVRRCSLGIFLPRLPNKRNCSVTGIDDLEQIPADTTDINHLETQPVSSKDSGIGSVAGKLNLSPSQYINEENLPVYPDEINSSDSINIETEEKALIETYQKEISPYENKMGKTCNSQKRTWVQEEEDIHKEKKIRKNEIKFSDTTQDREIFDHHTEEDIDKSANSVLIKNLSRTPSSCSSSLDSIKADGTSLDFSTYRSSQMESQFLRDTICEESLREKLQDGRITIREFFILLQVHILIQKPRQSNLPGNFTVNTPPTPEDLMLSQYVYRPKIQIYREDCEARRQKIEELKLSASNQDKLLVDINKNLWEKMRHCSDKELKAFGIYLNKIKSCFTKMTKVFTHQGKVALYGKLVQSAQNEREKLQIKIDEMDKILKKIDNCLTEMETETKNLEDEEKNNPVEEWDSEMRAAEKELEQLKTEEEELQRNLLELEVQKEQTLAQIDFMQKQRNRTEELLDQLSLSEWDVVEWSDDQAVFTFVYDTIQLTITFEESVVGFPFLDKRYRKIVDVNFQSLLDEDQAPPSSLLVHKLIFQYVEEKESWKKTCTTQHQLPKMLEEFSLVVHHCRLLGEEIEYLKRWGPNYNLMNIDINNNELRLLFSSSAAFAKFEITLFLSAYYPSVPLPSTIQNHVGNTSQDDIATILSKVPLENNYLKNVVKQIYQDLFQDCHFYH

In the case of BUB1/BUB3 complex (from UniProt O43683), the Kd is given as 100 nM.
